Measurements from PMC4018528.

Target: recombinant His-tagged Sp4E-BP (Strongylocentrotus purpuratus 4E-BP) (Strongylocentrotus purpuratus)
Assay: SPR; Sp4E-BP immobilised (60 uRIU) by amine coupling on a mixed SAM chip; Flag-MmIF4E1:m7GTP injected from 4.37 uM to 53.9 nM (3-fold dilution series); 25°C; HEPES 50 mM pH 7.7, KCl 150 mM, 0.5% Igepal; flow 25 uL/min; global fit, one step 1:1 reaction (Scrubber 2.0a)

- Kd: 23 nM
- koff: 0.00022 s⁻¹
- kon: 9300 M⁻¹ s⁻¹
Substance: Flag-tagged MmIF4E1 (eIF4E1 from Mus musculus), as Flag-MmIF4E1:m7GTP (from UniProt P63073 1-217) (natural protein)
